Reference: article PMC9093105

Molecular target: Human sapovirus (HuSaV) GI.6 capsid protein VP1, Nichinan strain, self-assembled as a virus-like particle (VLP) (human sapovirus GI.6, Nichinan strain)
Test: cryo-EM structure; single-particle cryo-EM of purified VLPs in Express Five SFM, icosahedral symmetry imposed, 2.9 Å; de novo atomic model

Work on “Human sapovirus (HuSaV) GI.6 capsid protein VP1, Nichinan strain, self-assembled as a virus-like particle (VLP) (natural protein)” yielded a stoichiometry N of 180 copies.
